This note sets out measurements from patent US20240270821A1, “GIP/GLP1/GCG TRI-RECEPTOR AGONISTS AND USES THEREOF” (priority 2023, published 2024).

Where a chain is given by its changes, count along the chain named. Non-standard residues stand in square brackets, D forms with d. No end group written: not given here. αMePhe(2-F) = C[C@](N)(Cc1ccccc1F)C(=O)O; Orn = NCCC[C@H](N)C(=O)O; Aib = CC(C)(N)C(=O)O

The labels stand for the following.
T1: human GIP receptor (human) (UniProt P48546)
T1 sequence (looked up): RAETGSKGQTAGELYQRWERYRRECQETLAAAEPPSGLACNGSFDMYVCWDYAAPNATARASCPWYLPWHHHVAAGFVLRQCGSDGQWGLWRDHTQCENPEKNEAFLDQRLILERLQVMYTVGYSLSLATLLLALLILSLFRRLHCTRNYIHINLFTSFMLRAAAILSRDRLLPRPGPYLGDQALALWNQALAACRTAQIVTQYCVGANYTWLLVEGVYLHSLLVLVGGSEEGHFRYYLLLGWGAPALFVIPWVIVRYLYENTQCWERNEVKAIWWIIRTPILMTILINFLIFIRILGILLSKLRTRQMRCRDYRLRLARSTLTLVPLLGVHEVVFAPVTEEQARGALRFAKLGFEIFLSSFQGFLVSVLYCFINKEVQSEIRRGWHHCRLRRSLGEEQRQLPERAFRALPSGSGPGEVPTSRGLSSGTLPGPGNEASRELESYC

B1: Example 277 (peptide)
chain: YXQGTFTSDFSXXLDKKAQXAFIEYLLEXGPSSGAPPPSGX
modifications: synthetic construct; SITE 2: note = 2-Aminoisobutyric Acid; SITE 12: note = L-ornithine; SITE 13: note = alpha-methyl-leucine; SITE 17: note = Lysine is chemically modified through conjugation of the epsilon-amino group of the Lysine side chain with (gamma-Glu)-(2-[2-(2-Amino-ethoxy)-ethoxy]-acetyl)
B2: Example 267 (peptide)
chain: B1 chain with Y25W, X29G, P31X, X41E
modifications: synthetic construct; SITE 2: note = 2-Aminoisobutyric Acid; SITE 12: note = L-ornithine; SITE 13: note = alpha-methyl-leucine; SITE 17: note = Lysine is chemically modified through conjugation of the epsilon-amino group of the Lysine side chain with (2-[2-(2-Amino-ethoxy)-ethoxy]-acetyl)-(gamma-Glu)
B3: Example 287 (peptide)
chain: YXQGTFTSDXSKXLDKKAQXAFIEYLIAXGESSGEPPPSGS
modifications: synthetic construct; SITE 2: note = 2-Aminoisobutyric Acid; SITE 10: note = 3-(4-Pyridyl)-L-alanine; SITE 13: note = alpha-methyl-leucine; SITE 17: note = Lysine is chemically modified through conjugation of the epsilon-amino group of the Lysine side chain with (2-[2-(2-Amino-ethoxy)-ethoxy]-acetyl)
B4: Example 283 (peptide)
chain: B3 chain with A28E, X29A, E35A
modifications: synthetic construct; SITE 2: note = 2-Aminoisobutyric Acid; SITE 10: note = 3-(4-Pyridyl)-L-alanine; SITE 13: note = alpha-methyl-leucine; SITE 17: note = Lysine is chemically modified through conjugation of the epsilon-amino group of the Lysine side chain with (2-[2-(2-Amino-ethoxy)-ethoxy]-acetyl)
B5: Example 273 (peptide)
chain: B1 chain with Y25W, X29G, P31H, S39G, X41E
modifications: synthetic construct; SITE 2: note = 2-Aminoisobutyric Acid; SITE 12: note = L-ornithine; SITE 13: note = alpha-methyl-leucine; SITE 17: note = Lysine is chemically modified through conjugation of the epsilon-amino group of the Lysine side chain with (2-[2-(2-Amino-ethoxy)-ethoxy]-acetyl)-(gamma-Glu)
B6: Example 268 (peptide)
chain: B1 chain with Y25W, X29G, P31X, X41T
modifications: synthetic construct; SITE 2: note = 2-Aminoisobutyric Acid; SITE 12: note = L-ornithine; SITE 13: note = alpha-methyl-leucine; SITE 17: note = Lysine is chemically modified through conjugation of the epsilon-amino group of the Lysine side chain with (2-[2-(2-Amino-ethoxy)-ethoxy]-acetyl)-(gamma-Glu)
B7: Example 269 (peptide)
chain: B1 chain with Y25W, X29G, P31H, X41H
modifications: synthetic construct; SITE 2: note = 2-Aminoisobutyric Acid; SITE 12: note = L-ornithine; SITE 13: note = alpha-methyl-leucine; SITE 17: note = Lysine is chemically modified through conjugation of the epsilon-amino group of the Lysine side chain with (2-[2-(2-Amino-ethoxy)-ethoxy]-acetyl)-(gamma-Glu)
B8: Example 271 (peptide)
chain: B1 chain with Y25W, X29G, P31H, S39G, X41E
modifications: synthetic construct; SITE 2: note = 2-Aminoisobutyric Acid; SITE 12: note = L-ornithine; SITE 13: note = alpha-methyl-leucine; SITE 17: note = Lysine is chemically modified through conjugation of the epsilon-amino group of the Lysine side chain with (2-[2-(2-Amino-ethoxy)-ethoxy]-acetyl)2-(gamma-Glu)
B9: Example 270 (peptide)
chain: B1 chain with Y25W, X29G, P31S, X41H
modifications: synthetic construct; SITE 2: note = 2-Aminoisobutyric Acid; SITE 12: note = L-ornithine; SITE 13: note = alpha-methyl-leucine; SITE 17: note = Lysine is chemically modified through conjugation of the epsilon-amino group of the Lysine side chain with (2-[2-(2-Amino-ethoxy)-ethoxy]-acetyl)-(gamma-Glu)
B10: Example 275 (peptide)
chain: B1 chain with F10X, X29A, G34X, X41T
modifications: synthetic construct; SITE 2: note = 2-Aminoisobutyric Acid; SITE 10: note = 3-(4-Pyridyl)-L-alanine; SITE 12: note = L-ornithine; SITE 13: note = alpha-methyl-leucine; SITE 17: note = Lysine is chemically modified through conjugation of the epsilon-amino group of the Lysine side chain with (2-[2-(2-

The first assay has as its target T1, human GIP receptor (human). The experiment in a line: cell-based or functional assay.
As to B1, the Relative cAMP EC50 was 0.0672 nM and the cAMP Rel EC50 (in the presence of 1% HSA) was determined as 13.3 nM.

As to B2, the Relative cAMP EC50 stood at 0.279 nM and the cAMP Rel EC50 (in the presence of 1% HSA) was determined as 55.5 nM.

Consider B3, for which the Relative cAMP EC50 turned out to be 0.0633 nM and the cAMP Rel EC50 (in the presence of 1% HSA) stood at 9.94 nM.

As for B4, the Relative cAMP EC50 turned out to be 0.225 nM and the cAMP Rel EC50 (in the presence of 1% HSA) was 47.2 nM.

B5: the Relative cAMP EC50 is 0.243 nM and the cAMP Rel EC50 (in the presence of 1% HSA) was 21.8 nM.

As to B6, the Relative cAMP EC50 was found to be 0.274 nM and the cAMP Rel EC50 (in the presence of 1% HSA) was determined as 33.7 nM.

In the case of B7, the Relative cAMP EC50 is 0.288 nM and the cAMP Rel EC50 (in the presence of 1% HSA) is 21.9 nM.

On to B8, for which the Relative cAMP EC50 was determined as 0.152 nM and the cAMP Rel EC50 (in the presence of 1% HSA) came out at 15.7 nM.

Turning to B9, the Relative cAMP EC50 was determined as 0.26 nM and the cAMP Rel EC50 (in the presence of 1% HSA) amounted to 36.5 nM.

With B10, the Relative cAMP EC50 turned out to be 0.318 nM and the cAMP Rel EC50 (in the presence of 1% HSA) was 27.7 nM.

Y[Aib]QGT[αMePhe(2-F)]TSDYSILLDKAAQK[Orn]FIEYLIEGGPSSGEPPPSEG-NH2 (not fully specified (residue 20)) [Example 306]: the Relative cAMP EC50 came out at 0.142 nM and the cAMP Rel EC50 (1% HSA) came to 95.3 nM.

The target in the next assay is human glucagon receptor (human) (UniProt P47871). The experiment in a line: cell-based or functional assay.
human glucagon receptor (human), sequence (P47871 26-477): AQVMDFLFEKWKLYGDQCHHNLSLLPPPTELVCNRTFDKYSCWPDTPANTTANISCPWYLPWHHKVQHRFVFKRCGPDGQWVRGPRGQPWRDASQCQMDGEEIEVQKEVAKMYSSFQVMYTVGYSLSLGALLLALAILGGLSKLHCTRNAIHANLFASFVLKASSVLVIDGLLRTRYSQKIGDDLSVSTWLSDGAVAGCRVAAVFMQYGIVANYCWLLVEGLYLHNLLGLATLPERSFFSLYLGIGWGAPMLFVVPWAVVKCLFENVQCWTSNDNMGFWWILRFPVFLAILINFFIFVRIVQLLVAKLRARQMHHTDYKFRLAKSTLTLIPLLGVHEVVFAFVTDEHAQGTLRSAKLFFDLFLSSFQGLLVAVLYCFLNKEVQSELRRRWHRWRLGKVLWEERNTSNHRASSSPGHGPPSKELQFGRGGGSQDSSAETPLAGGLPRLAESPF
Regarding B1, the Relative cAMP EC50 was 10.6 nM and the cAMP Rel EC50 (in the presence of 1% HSA) came to 1690 nM.

Take B2: the Relative cAMP EC50 was 5.74 nM and the cAMP Rel EC50 (in the presence of 1% HSA) turned out to be 1380 nM.

For the molecule B3, the Relative cAMP EC50 was found to be 2.53 nM and the cAMP Rel EC50 (in the presence of 1% HSA) was 291 nM.

Turning to B4, the Relative cAMP EC50 is 9.73 nM and the cAMP Rel EC50 (in the presence of 1% HSA) is 1470 nM.

Turning to B5, the Relative cAMP EC50 stood at 6.96 nM and the cAMP Rel EC50 (in the presence of 1% HSA) amounted to 1770 nM.

For the molecule B6, the Relative cAMP EC50 was 7.69 nM and the cAMP Rel EC50 (in the presence of 1% HSA) came out at 1300 nM.

B7: the Relative cAMP EC50 turned out to be 7.69 nM and the cAMP Rel EC50 (in the presence of 1% HSA) was determined as 1100 nM.

As for B8, the Relative cAMP EC50 came to 8.51 nM and the cAMP Rel EC50 (in the presence of 1% HSA) came out at 2680 nM.

Regarding B9, the Relative cAMP EC50 amounted to 5 nM and the cAMP Rel EC50 (in the presence of 1% HSA) stood at 1060 nM.

Regarding B10, the Relative cAMP EC50 was 7.8 nM and the cAMP Rel EC50 (in the presence of 1% HSA) worked out at 882 nM.

For the molecule Y[Aib]QGT[αMePhe(2-F)]TSDYSILLDKAAQK[Orn]FIEYLIEGGPSSGEPPPSEG-NH2 (not fully specified (residue 20)) [Example 306], the Relative cAMP EC50 was found to be 5.8 nM and the cAMP Rel EC50 (1% HSA) came out at 2820 nM.

The target of a further assay is hGLP-1R (Homo sapiens, UniProt P43220). The experiment in a line: cell-based or functional assay.
hGLP-1R, sequence (P43220 24-463): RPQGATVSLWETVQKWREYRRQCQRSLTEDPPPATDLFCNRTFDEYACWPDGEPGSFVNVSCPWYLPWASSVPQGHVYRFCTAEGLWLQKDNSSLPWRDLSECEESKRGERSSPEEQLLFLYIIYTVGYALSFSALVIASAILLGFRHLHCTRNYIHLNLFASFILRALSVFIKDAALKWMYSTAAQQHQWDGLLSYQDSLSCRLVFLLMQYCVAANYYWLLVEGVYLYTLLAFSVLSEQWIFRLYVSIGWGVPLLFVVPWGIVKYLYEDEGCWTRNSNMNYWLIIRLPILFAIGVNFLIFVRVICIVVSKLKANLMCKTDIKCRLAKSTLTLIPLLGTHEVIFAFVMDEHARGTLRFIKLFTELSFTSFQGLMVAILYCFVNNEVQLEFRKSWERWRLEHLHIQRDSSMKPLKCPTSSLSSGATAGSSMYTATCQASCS
Take B1: the Relative cAMP EC50 amounted to 5.56 nM and the cAMP Rel EC50 (in the presence of 1% HSA) was determined as 639 nM.

For the molecule B2, the Relative cAMP EC50 stood at 5.86 nM and the cAMP Rel EC50 (in the presence of 1% HSA) stood at 1020 nM.

As to B3, the Relative cAMP EC50 turned out to be 4.25 nM and the cAMP Rel EC50 (in the presence of 1% HSA) was 562 nM.

As to B4, the Relative cAMP EC50 came out at 1.16 nM and the cAMP Rel EC50 (in the presence of 1% HSA) was determined as 233 nM.

B5: the Relative cAMP EC50 is 4.02 nM and the cAMP Rel EC50 (in the presence of 1% HSA) worked out at 516 nM.

For the molecule B6, the Relative cAMP EC50 amounted to 3.14 nM and the cAMP Rel EC50 (in the presence of 1% HSA) is 437 nM.

Regarding B7, the Relative cAMP EC50 came to 3.23 nM and the cAMP Rel EC50 (in the presence of 1% HSA) stood at 428 nM.

As for B8, the Relative cAMP EC50 is 5 nM and the cAMP Rel EC50 (in the presence of 1% HSA) amounted to 887 nM.

Regarding B9, the Relative cAMP EC50 was 3.2 nM and the cAMP Rel EC50 (in the presence of 1% HSA) came to 658 nM.

On to B10, for which the Relative cAMP EC50 was found to be 4.93 nM and the cAMP Rel EC50 (in the presence of 1% HSA) was determined as 692 nM.

For Y[Aib]QGT[αMePhe(2-F)]TSDYSILLDKAAQK[Orn]FIEYLIEGGPSSGEPPPSEG-NH2 (not fully specified (residue 20)) [Example 306], the Relative cAMP EC50 is 0.335 nM and the cAMP Rel EC50 (1% HSA) came out at 126 nM.
